Results from paper PMC7176292.

Columns and labels:
[1] = target: human μ-opioid receptor (μOR) M153L, with HA signal sequence at the N terminus and LgBiT at the C terminus (modified pfastbac1) (human) (UniProt P35372); experiment: split reporter (BiFC, NanoBiT); NanoBiT on Sf9 membranes co-expressing μOR-LgBiT, Gαi1, Gβ1-SmBiT and Gγ2, in PBS pH 7.4; dose-response of DAMGO, 15 min at room temperature, luminescence; normalized to DAMGO
[2] = target: human μ-opioid receptor (μOR) M153I, with HA signal sequence at the N terminus and LgBiT at the C terminus (modified pfastbac1) (human) (UniProt P35372); experiment: as above
[3] = target: human μ-opioid receptor (μOR) M153F, with HA signal sequence at the N terminus and LgBiT at the C terminus (modified pfastbac1) (human) (UniProt P35372); experiment: as above
[4] = target: human μ-opioid receptor (μOR) M153A, with HA signal sequence at the N terminus and LgBiT at the C terminus (modified pfastbac1) (human) (UniProt P35372); experiment: split reporter (BiFC, NanoBiT); NanoBiT on Sf9 membranes co-expressing μOR-LgBiT, Gαi1, Gβ1-SmBiT and Gγ2, in PBS pH 7.4; dose-response of fentanyl, 15 min at room temperature, luminescence; normalized to DAMGO
[5] = target: human μ-opioid receptor (μOR) M153L, with HA signal sequence at the N terminus and LgBiT at the C terminus (modified pfastbac1) (human) (UniProt P35372); experiment: as above
[6] = target: human μ-opioid receptor (μOR) M153I, with HA signal sequence at the N terminus and LgBiT at the C terminus (modified pfastbac1) (human) (UniProt P35372); experiment: as above
[7] = target: human μ-opioid receptor (μOR) M153V, with HA signal sequence at the N terminus and LgBiT at the C terminus (modified pfastbac1) (human) (UniProt P35372); experiment: as above
[8] = target: human μ-opioid receptor (μOR) M153F, with HA signal sequence at the N terminus and LgBiT at the C terminus (modified pfastbac1) (human) (UniProt P35372); experiment: as above

Measured: maximal Gi coupling (normalized to DAMGO)

Chain of Gi protein complex (Gαi1, Gβ1 with SmBiT at the C terminus, Gγ2) (P63096 whole entry): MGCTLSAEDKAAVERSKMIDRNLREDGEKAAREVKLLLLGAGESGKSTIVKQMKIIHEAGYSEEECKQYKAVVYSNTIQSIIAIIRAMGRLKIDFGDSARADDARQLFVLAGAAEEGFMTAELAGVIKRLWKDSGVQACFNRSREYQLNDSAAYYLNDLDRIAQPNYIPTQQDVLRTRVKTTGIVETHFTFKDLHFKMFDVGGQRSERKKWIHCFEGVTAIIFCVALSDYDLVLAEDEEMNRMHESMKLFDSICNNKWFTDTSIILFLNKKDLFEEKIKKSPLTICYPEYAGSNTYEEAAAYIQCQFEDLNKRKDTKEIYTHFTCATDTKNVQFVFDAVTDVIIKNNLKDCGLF
Chain of Gi protein complex (Gαi1, Gβ1 with SmBiT at the C terminus, Gγ2) (P62873 whole entry): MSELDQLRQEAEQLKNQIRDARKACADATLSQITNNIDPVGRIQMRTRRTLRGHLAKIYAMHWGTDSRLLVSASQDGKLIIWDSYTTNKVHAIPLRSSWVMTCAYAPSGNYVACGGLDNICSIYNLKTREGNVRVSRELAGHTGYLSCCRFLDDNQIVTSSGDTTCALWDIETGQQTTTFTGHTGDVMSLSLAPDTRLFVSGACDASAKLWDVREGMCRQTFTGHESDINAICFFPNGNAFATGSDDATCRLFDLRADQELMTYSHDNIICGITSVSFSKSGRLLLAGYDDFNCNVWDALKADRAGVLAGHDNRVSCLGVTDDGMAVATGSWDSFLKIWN
Chain of Gi protein complex (Gαi1, Gβ1 with SmBiT at the C terminus, Gγ2) (P59768 whole entry): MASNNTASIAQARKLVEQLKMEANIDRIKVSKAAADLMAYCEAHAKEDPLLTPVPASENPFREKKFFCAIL

Gi protein complex (Gαi1, Gβ1 with SmBiT at the C terminus, Gγ2) (from UniProt P63096 1-354; P62873 1-340; P59768 1-71)
100%: [1] | [2] | [3]
< 55%: all other assays above
